1 substance from article PMC4338161 can be followed below.

For this test, the target named is BK α W176C (S2–S3 loop) in the pWTb background (mouse). Nature of the test: cross-linking.

“BK β1 subunit G12C (TM1 flank) in the pWT β1 background (from UniProt Q16558-1 1-191) (natural protein)” displayed an extent of cross-linking of 80%.
